In one assay the test system is T47Dv11 tumors. Kind of assay: T47Dv11 breast tumor xenograft, single agent and combination with fulvestrant. The class given is in vivo, C.B.-17 SCID mice. The following applies: for Average Tumor Growth Inhibition (%) / Final Tumor Volume (mean ± SD): T47DvII tumors in SCID mice, Day 70. How it is done:
The T47Dv11 model was used to assess the activity of H1H6958N2-DM1 in a model with significant levels of endogenous PRLR. […] Initially, 10×10^6 parental T47D cells were implanted subcutaneously (SC) into the left flank of female C.B.-17 SCID mice (Taconic, Hudson N.Y.). Tumors were supplemented with a 90-day release 1.7 mg estrogen pellet (Innovative Research America). Where T47D tumors were observed, they were excised and cut into 3 mm fragments and subsequently implanted into the left flank of separate female C.B.-17 SCID mice. Subsequent passaging was performed until a large tumor was disaggregated into a single cell suspension. The cells (named T47Dv11) from this tumor were then cultured in vitro and expanded. […] For efficacy studies, mice were implanted with 7.5×10^6 T47Dv11 cells into the left flank of female C.B.-17 SCID mice supplemented with a 90-day release 0.72 mg/pellet estrogen pellet. For MCF7 and MCF7/PRLR tumor xenografts, 2×10^7 MCF7/PRLR cells were implanted SC into the left mammary fat pad of female NCr nude mice (7-8 weeks old) supplemented with 90-day release 0.72 mg/pellet estrogen pellets. Tumors were measured with calipers twice a week for the duration of each study. Tumor volume was calculated using the formula TV=(length×width^2)/2.
After T47Dv11 tumors reached an average volume of ˜150-200 mm^3 (14-16 days post implantation), mice were randomized into treatment groups (n=8-9 mice/group) and received a single dose or three once-weekly doses of H1H6958N2-DM1, control ADC, or vehicle control, administered systemically by intravenous tail-vein injection. […] Tumor size and body weight were measured in vivo twice per week throughout the duration of the study.
Next, the combination of H1H6958N2-DM1 with the SERD fulvestrant was tested in the T47Dv11 xenograft model. Here, the activity of either agent at partially effective doses was compared against the activity of the agents in combination. First, a dose titration study of weekly administration of fulvestrant was performed in order to establish its single agent activity (FIG. 4).
For the subcutaneous tumors, average tumor size as well as tumor growth inhibition relative to the Vehicle treated group were calculated for each group. Tumors were measured with calipers twice a week until the average size of the vehicle group reached 1200 mm^3. Tumor size was calculated using the formula (length×width^2)/2. For all studies, tumor growth inhibition was calculated according to the following formula: (1−((Tfinal−Tinitial)/(Cfinal−Cinitial)))*100, where T (treated group) and C (control group) represent the mean tumor mass on the day the vehicle group reached 1000 mm^3.

The test system of assay [1] is PRLR expression in T47DvII cells. Kind of assay: PRLR expression after continuous culture with fulvestrant (flow cytometry or western blotting). Format: cell-based, human. The following applies: continuous culture with 10 or 100 nM, data not shown.
Assay [2] deals with human PRLR (dimeric) binding to PRL (Homo sapiens, UniProt P16471). Kind of assay: ELISA-based blocking of PRLR binding to immobilized human PRL. Conditions: plates coated with 1 μg/mL PRL; read-out: EC50, human PRLR binding to captured PRL. How it is done:
(§1) ELISA-based blocking assays were developed to determine the ability of H1H6958N2 and H1H6958N2-DM1 to block binding of human and cynomolgus monkey PRLR to immobilized human PRL. Dimeric forms of human or cynomolgus monkey (Macaca fascicularis) PRLR and monomeric human PRL were used in this assay. To generate initial dose-response curves, human or monkey PRLR at concentrations ranging from 3.38 pM to 200 nM was added to the plates previously coated in 1 μg/mL PRL. After 1-hour incubation, captured PRLR was detected with HRP-conjugated goat anti-Fcγ antibody and visualized with TMB colorimetric substrate by measuring absorbance at 450 nm. […] Mixtures were then added to plates coated with in 1 μg/mL PRL and captured PRLR was detected as described above. Data were analyzed using a four-parameter logistic equation over an 11-point response curve in GraphPad Prism software and IC50 values were calculated.

Assay [3] concerns the target cynomolgus monkey PRLR (dimeric) binding to PRL. Described as above. More on the design: species or system Macaca fascicularis. The following applies: plates coated with 1 μg/mL PRL; read-out: EC50, monkey PRLR binding to captured PRL. How it is done:
as §1

Assay [4] concerns PRLR in HEK293/PRLR/STAT5-Luc cells. The experiment in a line: STAT5 luciferase reporter assay, blocking of PRL-induced PRLR signaling (2 nM PRL). Format: cell-based. The following applies: PRL dose response, no antibody; read-out: EC50, stimulation of human PRLR signaling. How it is done:
The capacity of H1H6958N2 and H1H6958N2-DM1 to block human PRL-induced PRLR signaling was determined in a luciferase reporter assay using the HEK293 cell line engineered to constitutively express PRLR and stably transduced with a lucifierase reporter construct comprising 5 tandem STAT5 binding sites derived from the promoter of the human interleukin-2 receptor α gene [STAT5 response element (×5)-luciferase] (John et al., The EMBO Journal, 1996, 15(20): 5627-5635). […] Plates were incubated at 37° C. and 5% CO2 for 5 hours and equilibrated to room temperature for 10 minutes. Luciferase activity was again measured using the ONE-Glo substrate and measuring luminescence.

Another assay concerns HEK293 (293) cells. Kind of assay: In vitro cell viability (cell kill) assay, CCK8. The class given is cell-based, human. Conditions: HEK293, Table 13. A digest of the protocol: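 hPRLR stable lines; anti-PRLR-DM1 ADC (SMCC) or DM1-SMe, 10-pt 500 nM–5 pM, 3 d. CCK8 OD450 final 1-3 h (293/PC3); Hoechst nuclear count imaging (MCF7).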
Assay [5] relates to T47D cells. The experiment in a line: In vitro cell viability (cell kill) assay, CCK8. The following applies: T47D; Table 13; without PRL. The class given is cell-based, human. How it is done: (§2) Next, the ability of anti-PRLR-DM1 antibody-drug conjugates (i.e., anti-PRLR antibodies conjugated to DM1 via a non-cleavable linker [SMCC]) to reduce cell viability was determined using in vitro cell based assays. Cells were seeded in PDL-coated 96 well plates at 1500 to 10000 cells per well in complete growth media and allowed to grow overnight. For cell viability curves, ADCs or free DM1 (as the methyl disulfide derivative DM1-SMe) were added to the cells at final concentrations ranging from 500 nM to 5 pM and incubated for 3 days. The 293, PC3 and T47D cells were incubated with CCK8 (Dojindo, Rockville, Md.) for the final 1-3 hours and the absorbance at 450 nm (OD450) was determined on a Flexstation3 (Molecular Devices, Sunnyvale, Calif.). MCF7 cells were treated with Hoechst 33342 nuclear stain while being fixed with 4% formaldehyde. Images were acquired on the ImageXpress micro XL (Molecular Devices, Sunnyvale, Calif.) and nuclear counts were determined via Columbus image analysis software (Perkin Elmer, Shelton, Conn.). Background OD450 values (PC3, 293, and T47D) or nuclear counts (MCF7) from digitonin (40 nM) treated cells was subtracted from all wells and viability was expressed as a percentage of the untreated controls. IC50 values were determined from a four-parameter logistic equation over a 10-point response curve (GraphPad Prism).

For assay [6], the system named is T47D cells. The experiment in a line: Cell kill in the presence of PRLR ligand PRL (15 nM). The class given is cell-based, human. Conditions: Table 13, + 15 nM PRL. How it is done: as §2

These results are taken from patent publication US10925971B2, “Methods of treating PRLR positive breast cancer” (Regeneron Pharmaceuticals, Inc., priority 2016, dated 2021).

Entries after “also recorded” stand apart in the source; their conditions may differ.

Sequence of cynomolgus monkey PRLR (dimeric) binding to PRL (as listed by the source): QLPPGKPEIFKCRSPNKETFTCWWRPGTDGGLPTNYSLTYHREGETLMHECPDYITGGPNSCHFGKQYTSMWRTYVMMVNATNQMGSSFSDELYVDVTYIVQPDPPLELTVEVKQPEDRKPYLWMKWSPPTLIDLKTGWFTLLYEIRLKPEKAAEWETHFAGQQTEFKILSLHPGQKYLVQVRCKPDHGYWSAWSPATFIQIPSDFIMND
Sequence of human PRLR (dimeric) binding to PRL (P16471 with tags, fused parts or gaps limits assumed): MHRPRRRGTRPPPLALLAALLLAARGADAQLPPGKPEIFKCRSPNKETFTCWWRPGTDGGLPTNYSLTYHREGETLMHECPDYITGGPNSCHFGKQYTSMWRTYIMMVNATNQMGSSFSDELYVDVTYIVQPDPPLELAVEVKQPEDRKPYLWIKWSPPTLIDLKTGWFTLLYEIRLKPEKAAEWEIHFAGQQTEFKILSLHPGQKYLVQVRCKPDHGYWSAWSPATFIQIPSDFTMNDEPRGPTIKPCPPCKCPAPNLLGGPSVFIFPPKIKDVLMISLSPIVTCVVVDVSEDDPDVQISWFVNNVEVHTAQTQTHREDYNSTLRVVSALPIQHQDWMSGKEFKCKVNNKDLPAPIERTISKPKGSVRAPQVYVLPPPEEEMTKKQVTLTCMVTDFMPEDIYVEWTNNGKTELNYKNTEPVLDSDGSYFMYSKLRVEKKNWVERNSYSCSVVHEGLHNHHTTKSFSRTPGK

Regarding `C[C@]12CC[C@@H]3c4ccc(O)cc4C[C@@H](CCCCCCCCC[S+]([O-])CCCC(F)(F)C(F)(F)F)[C@H]3[C@@H]1CC[C@@H]2O` (stereo partly shown) [fulvestrant, reference compound], in the assay with T47Dv11 tumors (150 mg/kg), the “Average Tumor Growth Inhibition (%)” value was determined as 52% and the “Final Tumor Volume (mean ± SD)” value is on record as 660 ± 205 mm^3. Besides, in the assay with T47Dv11 tumors (250 mg/kg), the “Average Tumor Growth Inhibition (%)” value was found to be 74% and the “Final Tumor Volume (mean ± SD)” value stood at 433 ± 189 mm^3. Further, in the assay with T47Dv11 tumors (combination study, individual treatment 150 or 250 mg/kg subcutaneously once weekly), the “anti-tumor activity” value is “Significant anti-tumor activity”. The “PRLR expression” value in assay [1] is listed as “did not decrease PRLR expression; also recorded: did not significantly reduce PRLR expression”.

B1: PRL: monomeric human prolactin, ligand of PRLR (protein)
chain: LPICPGGAARCQVTLRDLFDRAVVLSHYIHNLSSEMFSEFDKRYTHGRGFITKAINSCHTSSLATPEDKEQAQQMNQKDFLSLIVSILRSWNEPLYHLVTEVRGMQEAPEAILSKAVEIEEQTKRLLEGMELIVSQVHPETKENEIYPVWSGLPSLQMADEESRLSAYYNLLHCLRRDSHKIDNYLKLLKCRIIHNNNC
Regarding B1, the EC50 worked out at 4.9 nM in assay [2], 5.7 nM in assay [3] and 2.1 nM in assay [4].

B2: H1H6782P-SMCC-DM1 (conjugate)
VH: EVQLVESGGGLVQPGRSLRLSCAASGFTFDDYAMHWVRQAPGKGLEWVSGIIWNSGHIGYGDSVKGRFTISRDNAKKSLYLQMNSLRAEDTALYYCARDSGRYQSYFDYWGQGTLVTVSS
VL: DIQMTQSPSTLSASVGDRVTITCRASHIISSWLAWYQQKPGKAPKVLIFKASSLESGVPSRFSGSGSGTEFTLTISSLQPDDFATYYCQQYNTYSRTFGQGTKVEIK
For the molecule B2, the “% Kill” value in the assay with HEK293 (293) cells (+ 15 nM PRL) is reported as 78%; in the assay with HEK293 (293) cells (without PRL), 83%; with T47D cells [5], 98%; in the assay on T47D cells [6], 97%.
